Bounds are passed on as bounds.

These results are taken from PMC3198426.

The assay deals with HAVI-Fluc-bJun (basic leucine zipper region of Jun, 225-334) (human). As to the kind of experiment: pull-down; DLR-PD (dual luciferase reporter pull-down): both proteins co-expressed in HEK293; lysate in passive lysis buffer on Streptavidin MagneSphere Paramagnetic Particles in PBS, 30 m to 1 h, room temperature; two washes PBS with 1% Nonidet P 40, one with PBS; the biotinylated HAVI-tagged protein is held, Fluc and Rluc activity read on the beads; in some samples eYFP-MAVS or other activators (IRF3) or HCV NS3/4A (MAVS) co-expressed. A general note: A reporter such as luciferase makes a cellular process visible.
Chain of HAVI-Fluc-bJun (basic leucine zipper region of Jun, 225-334) (human) (P05412 whole entry): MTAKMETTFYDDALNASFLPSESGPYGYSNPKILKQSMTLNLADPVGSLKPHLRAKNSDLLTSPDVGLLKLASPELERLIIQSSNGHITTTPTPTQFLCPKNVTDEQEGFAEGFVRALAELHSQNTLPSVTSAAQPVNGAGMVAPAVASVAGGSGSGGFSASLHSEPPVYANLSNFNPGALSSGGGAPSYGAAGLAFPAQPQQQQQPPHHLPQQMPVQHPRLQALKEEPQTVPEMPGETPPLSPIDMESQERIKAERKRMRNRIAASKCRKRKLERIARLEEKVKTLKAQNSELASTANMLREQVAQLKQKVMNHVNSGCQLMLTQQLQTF

Chain of Rluc-bFos-Flag (basic leucine zipper region of Fos, 118-220) (P01100 other isoform, or with tags, fused parts or gaps): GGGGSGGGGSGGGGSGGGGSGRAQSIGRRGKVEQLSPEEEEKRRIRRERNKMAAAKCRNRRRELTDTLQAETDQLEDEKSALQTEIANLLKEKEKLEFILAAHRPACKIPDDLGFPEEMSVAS

Consider “Rluc-bFos-Flag (basic leucine zipper region of Fos, 118-220) (from UniProt P01100 118-220) (domain or fragment)”, for which the activity ratio of Rluc/Fluc on the beads (Rluc/Fluc activity ratio) was found to be 1.7, the fold of the percentage of Rluc on beads over the three negative controls is greater than 80 fold, the molar ratio of Rluc-bFos to HAVI-Fluc-bJun binding to the beads was 0.1 molar ratio and the percentage of Rluc on beads to lysate stood at 4%.
